From article PMC11382572, “Structural and kinetic insights into the stereospecific oxidation of R-2,3-dihydroxypropanesulfonate by DHPS-3-dehydrogenase from Cupriavidus pinatubonensis” (Chemical Science, 2024)

Tests used:
[1] = system: O=S(=O)(O)C[C@H](O)CO; experiment: Michaelis-Menten kinetics (apparent KM); type: biochemical, Cupriavidus pinatubonensis; settings: Zn2+, NAD+
[2] = system: O=S(=O)(O)C[C@H](O)CO; experiment: purified protein; type: biochemical, Cupriavidus pinatubonensis; settings: Zn2+

| Substance | Km [1] [µM] | kcat/Km [1] [M⁻¹ s⁻¹] | Km [2] [µM] | kcat/Km ([2]; NADH active site, sulfonate and secondary hydroxyl groups participate in octahedral zinc coordination, occupancy […]) [M⁻¹ s⁻¹] |
| --- | --- | --- | --- | --- |
| DHPS-3-dehydrogenase (CpHpsN) (Cupriavidus pinatubonensis JMP134; E318A) | 2800 ± 300 | 1.8 | – | – |
| DHPS-3-dehydrogenase (CpHpsN) (Cupriavidus pinatubonensis JMP134; H319A) | – | – | 1200 ± 300 | 3.1 |
